Assay results as given in patent US20060257938A1, “Method of screening for drugs that block ligand binding to a lipid binding protein” (priority 2005, published 2006).
Where “and” joins values, the source holds several entries; their conditions need not be identical. Equal values may be shown once.

T1: ADIFAB (Rattus norvegicus, UniProt P02693)
T1 construct: purchased FFA Sciences LLC, San Diego, Calif
T1 sequence (P02693 2-132): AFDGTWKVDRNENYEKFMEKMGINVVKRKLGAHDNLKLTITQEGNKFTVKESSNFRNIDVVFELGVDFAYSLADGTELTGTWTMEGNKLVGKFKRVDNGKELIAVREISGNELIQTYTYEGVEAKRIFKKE


Columns and labels:
ADIFAB = target: T1, ADIFAB; experiment: ADIFAB screening assay in 96-well plates (emission ratio 505/432); format: binding
From the text: In a preferred embodiment, the probe is a fatty acid binding protein (FABP), more preferably a recombinant rat intestinal fatty acid binding protein (rI-FABP), which has been derivatized with acrylodan. DNA and protein sequences for Fatty Acid Binding Proteins (FABPs) are shown in the sequence listing. […] The rat fatty acid binding protein is post-translationally modified in the rat, with the modifications including the removal of the N-terminal methionine and the acetylation of the “new” N-terminal residue Ala. Protein sequences are numbered starting with the first residue of the mature protein. Thus, Ala is residue 1 in the corresponding protein shown as SEQ ID NO: 2. […]
Five identical 96-well plates were prepared with 0.5 μM ADIFAB and 1% dimethyl sulfoxide in 200 μL aqueous buffer (20 mM HEPES, 140 mM NaCl, 5 mM KCl, 1 mM Na2HPO4, pH 7.4) to test assay reproducibility, precision, and quality. Wells were excited at 386 nm and the emission detected at 432 and 505 nm with a fluorescence plate reader connected via fiber optic cables to a standard Spex spectrofluorometer. The emission ratio (505/432), which determines the amount of bound […], was calculated for each well. A positive control (4 μM sodium oleate (OA)) was added to each well and the ratio was measured again. […] The Z′-factor, as defined below, provides a quantitative assessment of the assay [Zhang, J., et al J. Biomol. […]

[1] = Binding affinities of ADIFAB2 compared with ADIFAB; conditions: greater than ADIFAB
From the text: ADIFAB2 also has an altered spectral response, making it especially useful for measurements of FFAu in blood samples (Apple et al, Clinical Proteomics, (2004) 1:41-44, U.S. patent application Ser. No. 10/670,958). The wavelengths at the maximum intensities emitted by these fluorescently-labeled I-FABP's in the absence of FFA is about 420 to 480 nm. The emission wavelengths at the maximum intensities emitted by these fluorescently-labeled I-FABP's with FFA bound are between about 495 to 580 nm. Experiments typically involve measuring the fluorescence response within both emission maxima or at wavelengths for which the effect of interfering molecules such as hemoglobin can be eliminated as described in U.S. application Ser. No. 10/670958 and PCT/US2004/030521 and the calculation of the ratio ‘R’ of the two fluorescence intensities. The baseline value for this ratio, measured in the absence of analyte, is designated R0.

[2] = Probe fluorescence intensity change with UCB:BSA; format: binding

| Molecule | ρc+ average ratio (505/432), Positive Control (+OA) (ADIFAB; 4 μM OA, 0.5 μM ADIFAB, 1% dimethyl sulfoxide, one value per plate 1-5) | ΔR (ADIFAB; 4 μM oleate, positive control) | binding affinities relative to ADIFAB [1] | ΔI/Io 1:1 UCB:BSA 440 nm ([2]; 1:1 UCB:BSA, 440 nm) | ΔI/Io 1:1 UCB:BSA 500 nm ([2]; 1:1 UCB:BSA, 500 nm) | ΔI/Io 1:2 UCB:BSA 440 nm ([2]; 1:2 UCB:BSA, 440 nm) | ΔI/Io 1:2 UCB:BSA 500 nm ([2]; 1:2 UCB:BSA, 500 nm) |
| --- | --- | --- | --- | --- | --- | --- | --- |
| CCCCCCCC/C=C\CCCCCCCC(=O)[O-].[Na+] [OA, sodium oleate] | 1.77 and 1.84 and 1.81 and 1.68 and 1.83 | 1.8 | – | – | – | – | – |
| ADIFAB2: acrylodan-derivatized rI-FABP with Ala substituted for Leu at position 72 (rI-FABP-L72A), SEQ ID NO: 4 (protein, listed as Rattus norvegicus, acrylodan label; MUTAGEN (72)...(72) rat intestinal fatty acid binding protein with alanine substitution for leucine at position 72) AFDGTWKVDRNENYEKFMEKMGINVVKRKLGAHDNLKLTITQEGNKFTVKESSNFRNIDVVFELGVDFAYSAADGTELTGTWTMEGNKLVGKFKRVDNGKELIAVREISGNELIQTYTYEGVEAKRIFKKDRGHHHHHH | – | – | about 10 fold | −0.40 | −0.34 | −0.19 | −0.16 |
